Laboratory results reported in patent US20190225669A1 (ACCELERON PHARMA, published 2019).
Like-named read-outs stand apart in the source and are kept apart here.

T1: ActRIIB-Fc homodimer (UniProt Q13705 19-137)
T1 construct: extracellular domain; also called ActRIIB homodimer
T1 sequence (looked up): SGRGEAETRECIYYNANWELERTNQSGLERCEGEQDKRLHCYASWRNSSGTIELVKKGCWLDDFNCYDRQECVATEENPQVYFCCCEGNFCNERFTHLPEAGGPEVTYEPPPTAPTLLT

T2: BMPRII-Fc homodimer (UniProt Q13873 27-150)
T2 construct: extracellular domain
T2 sequence (looked up): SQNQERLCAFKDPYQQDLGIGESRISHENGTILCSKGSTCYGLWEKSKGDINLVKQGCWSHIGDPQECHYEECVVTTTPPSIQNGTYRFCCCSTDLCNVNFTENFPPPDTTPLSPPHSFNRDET

T3: BMP5 (UniProt P22003 317-454, limits assumed)
T3 sequence (looked up): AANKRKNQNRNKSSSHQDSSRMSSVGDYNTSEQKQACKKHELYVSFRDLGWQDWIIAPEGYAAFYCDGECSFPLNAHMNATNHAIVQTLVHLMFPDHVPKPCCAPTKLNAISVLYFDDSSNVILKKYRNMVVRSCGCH

T4: BMP6 (UniProt P22004 382-513, limits assumed)
T4 sequence (looked up): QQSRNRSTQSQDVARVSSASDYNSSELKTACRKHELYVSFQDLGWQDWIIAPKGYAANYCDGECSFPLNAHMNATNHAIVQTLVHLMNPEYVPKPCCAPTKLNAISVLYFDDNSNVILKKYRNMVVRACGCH

B1: ALK3-Fc homodimer (Fc fusion, UniProt P36894 24-152, looked up, not shown: a dimerising Fc or GST)
chain: QNLDSMLHGTGMKSDSDQKKSENGVTLAPEDTLPFLKCYCSGHCPDDAINNTCITNGHCFAIIEEDDQGETTLASGCMKYEGSDFQCKDSPKAQLRRTIECCRTNLCNQYLQPTLPPVVIGPFFDGSIR
notes: extracellular domain

What was measured:
Test in all cases: Biacore SPR
ActRIIB-Fc homodimer [1] = target: T1, ActRIIB-Fc homodimer
Experimental: (§1) Ligands were injected and allowed to flow over the captured receptor protein.

ActRIIB-Fc homodimer [2] = target: T1, ActRIIB-Fc homodimer; remark: listed apart in the source
Experimental: as §1

ALK3-Fc homodimer [3] = target: B1
Experimental: as §1

ActRIIB-Fc homodimer [4] = target: T1, ActRIIB-Fc homodimer; remark: listed apart in the source
Experimental: as §1

ActRIIB-Fc homodimer [5] = target: T1, ActRIIB-Fc homodimer; remark: listed apart in the source
Experimental: as §1

ActRIIB-Fc homodimer [6] = target: T1, ActRIIB-Fc homodimer; remark: listed apart in the source
Experimental: as §1

ActRIIA-Fc homodimer = target: T5, ActRIIA-Fc homodimer (UniProt P27037 20-135)
T5 construct: extracellular domain
Experimental: as §1

ALK3-Fc homodimer [7] = target: B1; remark: listed apart in the source
Experimental: as §1

BMPRII-Fc homodimer [8] = target: T2, BMPRII-Fc homodimer
Experimental: as §1

BMPRII-Fc homodimer [9] = target: T2, BMPRII-Fc homodimer; remark: listed apart in the source
Experimental: A Biacore™-based binding assay was used to compare ligand binding selectivity of the BMPRII-Fc:ALK2-Fc heterodimeric complex described above with that of BMPRII-Fc and ALK2-Fc homodimeric complexes. […] Ligands were injected and allowed to flow over the captured receptor protein.

BMPRII-Fc homodimer [10] = target: T2, BMPRII-Fc homodimer; remark: listed apart in the source
Experimental: as §1

BMPRII-Fc homodimer [11] = target: T2, BMPRII-Fc homodimer; remark: listed apart in the source
Experimental: as §1

BMP5 [12] = target: T3, BMP5
Experimental: as §1

BMP6 [13] = target: T4, BMP6
Experimental: as §1

BMP5 [14] = target: T3, BMP5; remark: listed apart in the source
Experimental: as §1

BMP6 [15] = target: T4, BMP6; remark: listed apart in the source
Experimental: as §1

T5 sequence (P27037 20-135): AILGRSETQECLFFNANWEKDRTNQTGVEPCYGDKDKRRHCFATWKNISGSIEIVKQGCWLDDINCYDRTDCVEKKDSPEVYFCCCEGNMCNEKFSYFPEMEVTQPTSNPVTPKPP

Row | Kd (ActRIIB-Fc homodimer [1]) | koff (ActRIIB-Fc homodimer [1]) | kon (ActRIIB-Fc homodimer [1]) | Kd (ActRIIB-Fc homodimer [2]) | koff (ActRIIB-Fc homodimer [2]) | kon (ActRIIB-Fc homodimer [2]) | binding result (ALK3-Fc homodimer [3]) | Kd (ActRIIB-Fc homodimer [4]) | koff (ActRIIB-Fc homodimer [4]) | kon (ActRIIB-Fc homodimer [4]) | Kd (ActRIIB-Fc homodimer [5]) | koff (ActRIIB-Fc homodimer [5]) | kon (ActRIIB-Fc homodimer [5]) | Kd (ActRIIB-Fc homodimer [6]) | koff (ActRIIB-Fc homodimer [6]) | kon (ActRIIB-Fc homodimer [6]) | Kd (ActRIIA-Fc homodimer) | koff (ActRIIA-Fc homodimer) | kon (ActRIIA-Fc homodimer) | Kd (BMPRII-Fc homodimer [9]) | Binder | other results
1 | 0.002 nM | 0.00011 s⁻¹ | 5e+07 M⁻¹ s⁻¹ | 0.002 nM | 0.00011 s⁻¹ | 5e+07 M⁻¹ s⁻¹ | no binding | 0.002 nM | 0.00015 s⁻¹ | 9.6e+07 M⁻¹ s⁻¹ | 0.11 nM | 0.00022 s⁻¹ | 2e+06 M⁻¹ s⁻¹ | 0.074 nM | 0.00014 s⁻¹ | 1.9e+06 M⁻¹ s⁻¹ | 0.013 nM | 0.00092 s⁻¹ | 7.3e+07 M⁻¹ s⁻¹ | – | GDF11 (ligand, UniProt O95390 299-407, looked up, also called BMP11) NLGLDCDEHSSESRCCRYPLTVDFEAFGWDWIIAPKRYKANYCSGQCEYMFMQKYPHTHLVQQANPRGSAGPCCTPTKMSPINMLYFNDKQQIIYGKIPGMVVDRCGCS | –
2 | – | – | – | – | – | – | – | – | – | – | – | – | – | – | – | – | – | – | – | – | GDF5 (ligand, UniProt P43026 382-501, looked up, also called BMP14) APLATRQGKRPSKNLKARCSRKALHVNFKDMGWDDWIIAPLEYEAFHCEGLCEFPLRSHLEPTNHAVIQTLMNSMDPESTPPTCCVPTRLSPISILFIDSANNVVYKQYEDMVVESCGCR | Kd (ALK3-Fc homodimer [3]): 22 nM; koff (ALK3-Fc homodimer [3]): 0.011 s⁻¹; kon (ALK3-Fc homodimer [3]): 480000 M⁻¹ s⁻¹; Kd (ALK3-Fc homodimer [7]): 22 nM; koff (ALK3-Fc homodimer [7]): 0.011 s⁻¹; kon (ALK3-Fc homodimer [7]): 430000 M⁻¹ s⁻¹
3 | 1.5 nM | 0.0022 s⁻¹ | 1.4e+06 M⁻¹ s⁻¹ | 1.4 nM | 0.0023 s⁻¹ | 1.6e+06 M⁻¹ s⁻¹ | no binding | 1.5 nM | 0.0022 s⁻¹ | 1.4e+06 M⁻¹ s⁻¹ | 1.7 nM | 0.002 s⁻¹ | 1.2e+06 M⁻¹ s⁻¹ | 3.9 nM | 0.0018 s⁻¹ | 470000 M⁻¹ s⁻¹ | 2.4 nM | 0.0036 s⁻¹ | 1.5e+06 M⁻¹ s⁻¹ | – | GDF3 (ligand, UniProt Q9NR23 251-364, looked up) AAIPVPKLSCKNLCHRHQLFINFRDLGWHKWIIAPKGFMANYCHGECPFSLTISLNSSNYAFMQALMHAVDPEIPQAVCIPTKLSPISMLYQDNNDNVILRHYEDMVVDECGCG | –
4 | 0.011 nM | 0.00026 s⁻¹ | 2.3e+07 M⁻¹ s⁻¹ | 0.004 nM | 0.0002 s⁻¹ | 5.9e+07 M⁻¹ s⁻¹ | no binding | 0.025 nM | 0.00015 s⁻¹ | 5.9e+06 M⁻¹ s⁻¹ | 0.005 nM | 0.00028 s⁻¹ | 5.4e+07 M⁻¹ s⁻¹ | 0.018 nM | 0.00038 s⁻¹ | 2.1e+07 M⁻¹ s⁻¹ | 0.085 nM | 0.0025 s⁻¹ | 2.9e+07 M⁻¹ s⁻¹ | 0.13 nM | BMP10 (ligand, UniProt O95393 317-424, looked up) NAKGNYCKRTPLYIDFKEIGWDSWIIAPPGYEAYECRGVCNYPLAEHLTPTKHAIIQALVHLKNSQKASKACCVPTKLEPISILYLDKGVVTYKFKYEGMAVSECGCR | Kd (BMPRII-Fc homodimer [8]): 0.1 nM; koff (BMPRII-Fc homodimer [8]): 0.0025 s⁻¹; kon (BMPRII-Fc homodimer [8]): 2.6e+07 M⁻¹ s⁻¹; koff (BMPRII-Fc homodimer [9]): 0.005 s⁻¹; kon (BMPRII-Fc homodimer [9]): 3.8e+07 M⁻¹ s⁻¹; Kd (BMPRII-Fc homodimer [10]): 0.1 nM; koff (BMPRII-Fc homodimer [10]): 0.0025 s⁻¹; kon (BMPRII-Fc homodimer [10]): 2.6e+07 M⁻¹ s⁻¹; Kd (BMPRII-Fc homodimer [11]): 0.1 nM; koff (BMPRII-Fc homodimer [11]): 0.0025 s⁻¹; kon (BMPRII-Fc homodimer [11]): 2.6e+07 M⁻¹ s⁻¹
5 | – | – | – | – | – | – | – | – | – | – | – | – | – | – | – | – | – | – | – | – | B1 | Kd (BMP5 [12]): 70 nM; koff (BMP5 [12]): 0.002 s⁻¹; kon (BMP5 [12]): 29000 M⁻¹ s⁻¹; Kd (BMP6 [13]): 35 nM; koff (BMP6 [13]): 0.0049 s⁻¹; kon (BMP6 [13]): 140000 M⁻¹ s⁻¹; Kd (BMP5 [14]): 70 nM; koff (BMP5 [14]): 0.0023 s⁻¹; kon (BMP5 [14]): 29000 M⁻¹ s⁻¹; Kd (BMP6 [15]): 35 nM; koff (BMP6 [15]): 0.0049 s⁻¹; kon (BMP6 [15]): 140000 M⁻¹ s⁻¹
6 | 0.02 nM | 0.0001 s⁻¹ | 5.1e+06 M⁻¹ s⁻¹ | 0.02 nM | 0.0001 s⁻¹ | 5.1e+06 M⁻¹ s⁻¹ | no binding | 0.008 nM | 0.00016 s⁻¹ | 1.5e+07 M⁻¹ s⁻¹ | 0.028 nM | 0.00011 s⁻¹ | 3.8e+06 M⁻¹ s⁻¹ | 0.02 nM | 0.0001 s⁻¹ | 5.1e+06 M⁻¹ s⁻¹ | 0.01 nM | 0.00011 s⁻¹ | 1.1e+07 M⁻¹ s⁻¹ | 2.6 nM | activin B (ligand, UniProt P09529 293-407, looked up) GLECDGRTNLCCRQQFFIDFRLIGWNDWIIAPTGYYGNYCEGSCPAYLAGVPGSASSFHTAVVNQYRMRGLNPGTVNSCCIPTKLSTMSMLYFDDEYNIVKRDVPNMIVEECGCA | koff (BMPRII-Fc homodimer [9]): 0.0049 s⁻¹; kon (BMPRII-Fc homodimer [9]): 1.9e+06 M⁻¹ s⁻¹; Kd (BMPRII-Fc homodimer [10]): 3.8 nM; koff (BMPRII-Fc homodimer [10]): 0.075 s⁻¹; kon (BMPRII-Fc homodimer [10]): 2e+07 M⁻¹ s⁻¹; Kd (BMPRII-Fc homodimer [11]): 3.8 nM; koff (BMPRII-Fc homodimer [11]): 0.075 s⁻¹; kon (BMPRII-Fc homodimer [11]): 2e+07 M⁻¹ s⁻¹
